Measurements from patent publication US20260035433A1.
Changes are numbered by the printed parent chain.

B1: PD-L1 analog-Fc fusion protein of SEQ ID NO: 21 (Fc fusion)
chain: LIGYGGADYKRITLKVHAPYRNISQRISVDPVTSGGGGQGGGSGGQGGGGGDCPKCPAPEMLGGPSVFIFPPKPKDTLLIARTPEVTCVVVDLDPEDPEVQISWFVDGKQMQTAKTQPREEQFNGTYRVVSVLPIGHQDWLKGKQFTCKVNNKALPSPIERTISKARGQAHQPSVYVLPPSREELSKNTVSLTCLIKDFFPPDIDVEWQSNGQQEPESKYRTTPPQLDEDGSYFLYSKLSVDKSRWQRGDTFICAVMHEALHNHYTQESLSHSPG
B2: PD-L1 analog-Fc fusion protein of SEQ ID NO: 20 (Fc fusion)
chain: FTITVSKDLYVVEYGGNVTMECKFPVEKQLNLFALIVYWEMEDKKIIQFVNGKEDLKVQHSSYSQRAQLLKDQLFLGKAALQITDVRLQDAGVYRCLIGYGGADYKRITLKVHAPYRNISQRISVDPVTSGGGGQGGGSGGQGGGGGDCPKCPAPEMLGGPSVFIFPPKPKDTLLIARTPEVTCVVVDLDPEDPEVQISWFVDGKQMQTAKTQPREEQFNGTYRVVSVLPIGHQDWLKGKQFTCKVNNKALPSPIERTISKARGQAHQPSVYVLPPSREELSKNTVSLTCLIKDFFPPDIDVEWQSNGQQEPESKYRTTPPQLDEDGSYFLYSKLSVDKSRWQRGDTFICAVMHEALHNHYTQESLSHSPG
B3: PD-L1 analog-Fc fusion protein of SEQ ID NO: 24 (Fc fusion)
chain: LIGYGGADYKRITLKVHAPYRNISQRISVDPVTSEHELMCQAEGYPEAEVIWTSSDHRVLSGKTTITNSNREEKLFNVTSTLNINATANEIFYCTFQRSGPEENNTAELVIPERLPVPASERTHFMILGPFGGGGQGGGSGGQGGGGGDCPKCPAPEMLGGPSVFIFPPKPKDTLLIARTPEVTCVVVDLDPEDPEVQISWFVDGKQMQTAKTQPREEQFNGTYRVVSVLPIGHQDWLKGKQFTCKVNNKALPSPIERTISKARGQAHQPSVYVLPPSREELSKNTVSLTCLIKDFFPPDIDVEWQSNGQQEPESKYRTTPPQLDEDGSYFLYSKLSVDKSRWQRGDTFICAVMHEALHNHYTQESLSHSPG
B4: PD-L1 analog-Fc fusion protein of SEQ ID NO: 27 (Fc fusion)
chain: FTITVSKDLYVVEYGGNVTMECKFPVEKQLNLFALIVYWEMEDKKIIQFVNGKEDLKVQHSSYSQRAQLLKDQLFLGKAALQITDVRLQDAGVYRCLIGYGGADYKRITLKVHAPYRNISQRISVDPVTSEHELMCQAEGYPEAEVIWTSSDHRVLSGKTTITNSNREEKLFNVTSTLNINATANEIFYCTFQRSGPEENNTAELVIPERLPVPASERTHFMILGPFGGGGQGGGSGGQGGGGGDCPKCPAPEMLGGPSVFIFPPKPKDTLLIARTPEVTCVVVDLDPEDPEVQISWFVDGKQMQTAKTQPREEQFNGTYRVVSVLPIGHQDWLKGKQFTCKVNNKALPSPIERTISKARGQAHQPSVYVLPPSREELSKNTVSLTCLIKDFFPPDIDVEWQSNGQQEPESKYRTTPPQLDEDGSYFLYSKLSVDKSRWQRGDTFICAVMHEALHNHYTQESLSHSPG
B5: PD-L1 analog-Fc fusion protein of SEQ ID NO: 32 (Fc fusion)
chain: B4 chain with R95C
B6: PD-L1 analog-Fc fusion protein of SEQ ID NO: 22 (Fc fusion)
chain: FTITVSKDLYVVEYGGNVTMECKFPVEKQLNLFALIVYWEMEDKKIIQFVNGKEDLKVQHSSYSQRAQLLKDQLFLGKAALQITDVRLQDAGVYRCLIGYGGADYKRITLKVHAPYRNISQRISVDPVTSQGGGSGGQDCPKCPAPEMLGGPSVFIFPPKPKDTLLIARTPEVTCVVVDLDPEDPEVQISWFVDGKQMQTAKTQPREEQFNGTYRVVSVLPIGHQDWLKGKQFTCKVNNKALPSPIERTISKARGQAHQPSVYVLPPSREELSKNTVSLTCLIKDFFPPDIDVEWQSNGQQEPESKYRTTPPQLDEDGSYFLYSKLSVDKSRWQRGDTFICAVMHEALHNHYTQESLSHSPG
B7: PD-L1 analog-Fc fusion protein of SEQ ID NO: 26 (Fc fusion)
chain: FTITVSKDLYVVEYGGNVTMECKFPVEKQLNLFALIVYWEMEDKKIIQFVNGKEDLKVQHSSYSQRAQLLKDQLFLGKAALQITDVRLQDAGVYRCLIGYGGADYKRITLKVHAPYRNISQRISVDPVTSEHELMCQAEGYPEAEVIWTSSDHRVLSGKTTITNSNREEKLFNVTSTLNINATANEIFYCTFQRSGPEENNTAELVIPERLPVPASERTHFMILGPFQGGGSGGQDCPKCPAPEMLGGPSVFIFPPKPKDTLLIARTPEVTCVVVDLDPEDPEVQISWFVDGKQMQTAKTQPREEQFNGTYRVVSVLPIGHQDWLKGKQFTCKVNNKALPSPIERTISKARGQAHQPSVYVLPPSREELSKNTVSLTCLIKDFFPPDIDVEWQSNGQQEPESKYRTTPPQLDEDGSYFLYSKLSVDKSRWQRGDTFICAVMHEALHNHYTQESLSHSPG

Each binder was assayed against His-Tagged rhFc(gamma) receptor I (recombinant human Fc(gamma)R-I; Acro Biosystems, catalog# FCA-H52H1) (human) (assay: ELISA, fusion protein coated at 10 ug/mL, His-tagged rhFc(gamma)RI in solution, anti-His-HRP).
Sequence of His-Tagged rhFc(gamma) receptor I (recombinant human Fc(gamma)R-I; Acro Biosystems, catalog# FCA-H52H1) (human) (P12314 16-292): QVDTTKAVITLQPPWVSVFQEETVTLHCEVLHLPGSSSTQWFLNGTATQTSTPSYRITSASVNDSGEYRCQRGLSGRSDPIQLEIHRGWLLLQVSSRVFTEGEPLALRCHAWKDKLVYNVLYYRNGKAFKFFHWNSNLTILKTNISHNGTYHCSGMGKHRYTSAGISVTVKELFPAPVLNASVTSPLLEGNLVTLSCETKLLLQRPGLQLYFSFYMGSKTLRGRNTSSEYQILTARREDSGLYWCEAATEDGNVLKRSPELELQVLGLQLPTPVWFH
An OD450 at 222 ng/ml Fc(gamma) RI of 2.05 OD450 was found for B1 in this work.
An OD450 at 222 ng/ml Fc(gamma) RI of 1.97 OD450 was found for B2 in this work.
An OD450 at 222 ng/ml Fc(gamma) RI of 1.49 OD450 was found for B3 in this work.
An OD450 at 222 ng/ml Fc(gamma) RI of 1.78 OD450 was found for B4 in this work.
An OD450 at 222 ng/ml Fc(gamma) RI of 1.7 OD450 was found for B5 in this work.
An OD450 at 222 ng/ml Fc(gamma) RI of 1.91 OD450 was found for B6 in this work.
An OD450 at 222 ng/ml Fc(gamma) RI of 1.79 OD450 was found for B7 in this work.
